Experimental data reported in publication PMC10123652, “An Antibody Targeting Fibroblast Activation Protein Simultaneously Fused to Interleukin-2 and Tumor Necrosis Factor Selectively Localizes to Neoplastic Lesions” (Antibodies, 2023).

Columns and labels:
[1] = target: IL2-7NP2-TNF^mut (human); experiment: SEC; Superdex 200 Increase 10/300 GL; purified protein dialyzed against PBS pH 7.4; IgG (150 kDa) and SIP (80 kDa) as controls
[2] = target: T1, recombinant human fibroblast activation protein (FAP) (Homo sapiens, UniProt Q12884); experiment: ELISA; plate coated with 0.1 µM human FAP overnight at 4 °C in 50 mM HEPES, 100 mM NaCl, pH 7.4; serial dilutions of IL2-7NP2-TNF^mut in 2% milk-PBS, 4 h at RT; detection with Protein A-HRP; triplicate; settings: both partners purified
T1 construct: also called human FAP antigen; hFAP
T1 sequence (Q12884 whole entry): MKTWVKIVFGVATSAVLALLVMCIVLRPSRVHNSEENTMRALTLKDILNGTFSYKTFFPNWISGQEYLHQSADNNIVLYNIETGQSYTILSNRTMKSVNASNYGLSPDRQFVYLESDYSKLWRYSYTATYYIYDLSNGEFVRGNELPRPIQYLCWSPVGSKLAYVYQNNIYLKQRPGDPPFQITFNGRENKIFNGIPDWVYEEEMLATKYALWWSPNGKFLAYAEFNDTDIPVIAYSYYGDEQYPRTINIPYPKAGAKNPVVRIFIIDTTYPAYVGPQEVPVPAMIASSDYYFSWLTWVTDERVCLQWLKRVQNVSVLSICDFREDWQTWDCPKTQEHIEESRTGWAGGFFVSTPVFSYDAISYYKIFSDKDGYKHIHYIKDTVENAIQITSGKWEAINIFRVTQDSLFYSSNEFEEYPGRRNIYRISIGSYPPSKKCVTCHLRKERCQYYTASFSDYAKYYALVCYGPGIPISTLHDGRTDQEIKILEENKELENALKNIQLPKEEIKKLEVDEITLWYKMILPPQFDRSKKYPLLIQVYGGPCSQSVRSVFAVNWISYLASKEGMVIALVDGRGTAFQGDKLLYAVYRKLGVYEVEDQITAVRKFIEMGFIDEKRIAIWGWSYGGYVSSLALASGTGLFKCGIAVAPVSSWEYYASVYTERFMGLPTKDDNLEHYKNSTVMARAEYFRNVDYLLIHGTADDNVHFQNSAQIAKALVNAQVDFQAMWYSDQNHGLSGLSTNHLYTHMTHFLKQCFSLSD

- stoichiometry N [1]: 3
- Kd [2]: ~100 pM
B1: IL2-7NP2-TNF^mut (other, human)
VH: EVQLLESGGGLVQPGGSLRLSCAASGFTFSSYAMSWVRQAPGKGLEWVSAIGSVGGPTYYADSVKGRFTISRDNSKNTLYLQMNSLRAEDTAVYYCAKRLAWFDYWGQGTLVTVSS
VL: EIVLTQSPGTLSLSPGERATLSCRASQSVSSSYLAWYQQKPGQAPRLLIYGASSRATGIPDRFSGSGSGTDFTLTISRLEPEDFAVYYCQQSGKGPLTFGQGTKVEIK
notes: wild-type human interleukin-2 (IL2), N-terminal moiety of the fusion; mutated version of human TNF (TNFα); Non-covalent homotrimer; also called dual-cytokine antibody fusion protein
